The series is described as follows: soluble on expression in E. coli; label from the status in PepcDB or PDB records.
“MAHHHHHHMDLNDFLRNTKTAAQDGSAGVRTLLSGHKRFADTNEASAEASSSGAGASGKRPRRSGTAEGLNIRAAQEALAQERGNTSAQAQQQRAQAELLSEQAAARMVHQVLEYVMQVELGGRHNAAKGGIAPFVPSAAQLAAEKAMWTPAAGYVIHHVVPATLDTSPHTLESLMSVTEKERVPDGVRALRGTLQVFDTERDLVGGVRTGMAPHLRTHVLEVLEKGLHGRAWLRDDAAVATQISALGKPTTPDKGPSSVLLFGDLATASVANSDATSSARDTASAGDEASKPRSKGFSLAAFLNGNDPTSSSSDGEDP”: the “soluble on expression in E. coli” value is on record as “not soluble”. In the case of “MAHHHHHHMDLVQLQRILSTHDERVVKVFVNHIPEVGLRKIDDCVLEYMLKMLEGQTSSESYLPEEIIEETMKLYFREFDVFSDSEEKLNKSTAAICQQMLKEGITKKPSEESSRLASAVNIGRQYEESLKRATMIKSVGKVTTANTNEDWTWETKRSAAKDMRKKRREDEKKAILAEEYEAFLRKRGISNTTAVTKIHHKGEGTNYSTDIRCEAIHIQLGKQVLLDDTDLVLLTGHKYGLIGRNGAGKTTLLRALAERELEGVSPFMQILHVEQEIVAGAETPLEVLLATDVERAQLLHEEQELLKQNDTEANTRLNEVYARLDAIDAHSAEARAATILHGLSFTQDMMTSPTKQLSGGWRMRVALARALFVEPDVLLLDEPTNHLDLFAVLWLEQFLRDWQKTLIVVSHSRTFLNNVCSEIIHLIGHHLHYYNGNYDQFEITRVEQERQQKKQHAAQEKQRAHIQAFIDKFRYNANRAKMAQSRIKALERMEMVADVVTDPQFAFTFPDAEPVSGSFIEMVDCEFGYKPGVSLFKDVNMGIDESSRIVLVGANGVGKSTFMNVCTGALEPRSGTVVRNKKIRVAHFAQHNMESLTPQLSSLEFLRSKFPHMEDQQLRAHLGSMGLSGERALQPIYTLSGGQKSRLVLAWITFQKPHLLLLDEPTNHLDIDTVNALIEALLAYNGGLLVISHDEYFITSLCDDIFVCEDNTVKKFDGDFAEYRKHVVKMMK” it was “soluble”; in that of “MAHHHHHHMDTNDYENLRFYNYIPVNKELKKSCIPCPDTEDYEAKLNKEFDEELTKVFQGNILDQINAKDINADLKRDLKKKLDILSKKTDKAVVQLIKQKINENKNKENITNTNDDEKEKETMTLNFDKKGDKNFGHVLYKTLDKLDVMDDESD”, “soluble”; in that of “MAHHHHHHMECGYRNEGKFHQVVLNIKEKIEKHDLSKWKDIVKPEEGPKYDEYFERLLRGGTPEKDSHEEDSNEKHTHETHDLPAEQAEETPPEVCEPPGDEKNKTEFQLNKEFFDKISNKEKFYFLLNIKEMMETSWLLAQKRLEGIKLEEKSKPVNVQDLLNYSQKIADTTCAPPECDNINDKIMHQEYYPNYHFLNFVNVEEIHLSKLFQLQKYSTVCFPPIITIQEGKDNMLAIDITCSTPHATIYYRMNDDPNEQIYNTDDKPQIRKRKKVNVYAWSVKDGHIKSRVSCISKSYKVEEDDSFPLSDNLPNKEQGEQQTGSSKMGVEANAPGKPSQITNVFKNLGFLLSRKKEKTEEPSSNGESSSEG”, “not soluble”. In the case of “MAHHHHHHMEDAYAGLCSQSVFEPKMDFTLCINKSIKLFLKDINISKYDKNNVDNKKDVNTSDTKVIETSNDQNQNNQNDQNDQQSDILNNQHLLKENEAFLNGYLYFSRIGHNINLLLNELSSIKKDFRFLNKETRKKIKKFKQVKNKNIIYKDLLQDIKEKRKRKEIYEKLSIEIKKLDEVKKVQEKQKIEKDEINNLEHKILNIENIIKSNNDHIQETINQINKIVSENIQI” it was “not soluble”.

For the sequence “MAHHHHHHMEPNADEPKKTSSVRQLLRQQRELQEMRKFGLAPLAVDTETHQEISPNIPEFISRAPWYYGATGPTLVHQRKQGDSATEVSDEVLDEKVDRIVVKGQASRFTAGACKNCGSRTHKTSECFQAKKKVGSVYTNRVTGSDIETHQEAKTYSQKRDRFVGEVGIDLMRGVRQDQQDDNVDVAAPATARHRPEDVFGSRTAQHGGVEVKELPKYLHNLDQQDGLFFDPKTGSMRANPNSGDSTKAFRGDLERYRTGDYYNYVESQYRFLTGQSRSFVDFEFDDAMRRAREQQQEPQQQEQNSTRGPVTKVLTETPQDVLLRSLYGASQPKFDSDVLPSFTTESKTSAPSSSPAPPVDALATTATATVTAHSSVQAASLSWVTTRNGHAAVYGSYFDPIHFRWGYACCKRMGKDTTGCSATHA”, the “soluble on expression in E. coli” value is on record as “soluble”. In the case of “MAHHHHHHMEQFLNQVAASNKTVKCIKGALQIYDTYGEVFSLVHERRYEEAGIICTHFSDHIGQLFLGTTDGNCLVYYHDERSGDEQRSGVEERSGDDLYGDADRCGVPPVGRKKKGGVLEYLHKGVKRKRERASFYTNSEHIYNLDSLPKEIKITDAGDVLIKKDLINAKVKMNPKLSSFTANAYEKKRQVGMYSKYIVDANPSGKDPSSSQTNKGNEYEEEDIVEKLRKREQSKQGGDYFMNAYKYTQPSAIIDYSSGEEQEYSQLLKKPKCPQCGVKNCVCGFMRSGGRRAR”, the “soluble on expression in E. coli” value is “not soluble”. The result for “MAHHHHHHMERAHGAKDGGSKTLFVTVGSHQFDDLIKQIDTKDFHSFLRRAGFAKMSMQIGQGTYEPQLIYRCSGNGEESLLKRVKFFRYKKDLLKDFQKADLIVSHAGAGTTLEGLRMKKKMLIVVNDKLMGNHQLEFAEFLRSRNYLEVCECLGDLRAHVLRCLRTPAFAPFPAPRPEPFLRDLRALMDGAA” reads “soluble”; that for “MAHHHHHHMFCFSRGLWMRHIGQDVPKRHTHFVLESRLMYEKSFRDCWLHSVCRAISQLDEPLSKTVVGTHQKMLQRKVTCFQYNQYGLFKTPYYRLANVDRYHAVQGVAGTREWVPYVNVSYWTMNKMVRGGNLLVHRVHYTGWGTDSHLKKGGWEHRWNKVLQRNVLQYSRI”, “not soluble”; that for “MAHHHHHHMFCNLNVCLAFLSSQYGKENMNARKPLAVSAGTNSRSGEGDWKSTMRSFREGVRCLGEENEALRTVRSDLDAISRKLTEKMNSLVEENGSFHKSMSTLLDDERRKVSIITDQNENLLHKLEELRKEYDDANKEISRLTDLVHTEKSRNNSVVGLFEKKLAEKEDEYQTELRLREQSLEKLKTQLEEKCSAYEAQLTDRDNLLQTERCQWKLQKEVYEKEIERLLSQVGKFAITQRSSSQQSTLGVDVAHAKPPLAPVPPPAPTDEEGDRAVVKKRRLEAVRQQRRLKENDKNDI”, “not soluble”. The result for “MAHHHHHHMFRAARLLRGVSPFSVFLMDQKNNPSLQGVSIAKRGKMLSKMYKELSQQQRRDLQKRAEVHPSLRKSKRARPPRKTEFAEFVRQNYKVVQGLNYRKRFSALSQLYELHKPIEVQVTKALKEAKAKKVTSAKTAVKKAATKSKTAKRAKGGKSTPKKSTGKK” reads “soluble”; that for “MAHHHHHHMGADIKLLLIDFDGTLFVDKDIKVPSENIEAIKEAIEKGYMVSICTGRSKVGILSAFGEENLKKMNFYGMPGVYINGTIVYDQIGYTLLDETIETDVYAELISYLVENNLVNQTIFHRGESNYVTEDNKYSDFLQKMYSENRSIIIRHNEMLKYRTMNKLMIVLDPSESKTVIGNLKQKFKNKLTIFTTYNGHAEVNKLGHDKYTGINYLLKHYNISNDQVLVVGDAENDIAMLSHFKYSFAVANATNSAKSHAKCVLPLSHKEGAVAYLLKKVFDLKK”, “not soluble”; that for “MAHHHHHHMGAVDYEVNETHLTGAQALSDYLLDTWYVHDMPRYGAVSCIDRNVTALLRFADEWRGTNVNVFLYNSSSHHQAGLSLATYYDLFIKSFLGRDSAFMRYEAELFNEPASQSQLGFIFIGAPGGRSAGGLPGRAVGRHGPCGAARGVDCDPARRRALLRCADDAPPGGGGGACEHCGDHGARVRAVCRRQGTPEEQVRQRLRGERAAGVGAARGALCVVHAGGVPRRCAERRRGSAVRVPAAARSRLR”, “not soluble”. In the case of “MAHHHHHHMGDKVEYGTSTVKSLGDTCRLVRALQGSTDPRLVSINSLLEGVVKSAQSLVKGTDSQKRFNMEFAEFCGVALMGLPDLEDAVDDLRVQENCANAAVNDQDDFDGISPAIFMREIIGYVVSRNTNVGAQYLEHIGRSAMAKFAGQESSEVTPKRLKSGMNDERHVQSVARKKQRTRPVAGKMGRAPTDDKSGVAATGRVFGVDGDEPKQRYKQSMPKGPPMLSRWVKPWTLLNQRVQGIILEHASNENTRRPPVCNYPPGKRSNITPFDICTAPSGPEMLNLWHARESMTSSSVGHCDPVGVAFDETALDHDSKGSEPSFFPSGDKKVCAFVSSELMANLVRYGVSSLEAPFKGAK” it was “not soluble”; in that of “MAHHHHHHMGGCLISPSAEMQLEENTTSPFGHRRPIFGLFGAGEVTGGVHGGNRLGGNSLLECVVFGRIAGDRAATILQNNDTYLWGEKWSQLKLRNVMEDENGFMWLHFTFPSSFQVSGLEALQGVVLRSVSGDKSVEVYTPYTLPDDEGVVGIALSPWLTGNGVHWLRTLQPGDTVEMKAAERVERNYMNMLKAPHKVVIATSRGIAPMMQILRATMERPEKDATIHLIYIADRASSIPYREKLKALAEASPERFRCTFVLQHPQPGWSGAVNYLDEIAASVFPDPAVVIFLCGASEETRSIKSSLLDMGHDVATIATVE”, “not soluble”; in that of “MAHHHHHHMGGQSSVTTTPEQIPVNGKSLDWGPPPDDIPEEERDNEELVLQTWAFCKAKPSPAQNYRSDVEERKRRQSMLWRKRASFIELDCGEDSFFVSNTYKVIGVADGVGGWRDEGVDASHFANSLMENAKHFSETHRKELNPEVILQSAFDKVLHDKVVKAGSSTACVVALQKDSSGEHYLDVANVGDSGVLVVRNRQVQHRVHEKVHGFNAPFQLAVLPPHLQGRAFSDRVSDATREKIPVQRGDVVITGTDGLFDNRFNISLAADAGWIGHVQGSALERVPLVGLLLGPIFANDKVAYVDPQRVAQRIVQDAYKTSLDESAHTPWASMLRKFGVEDAKGGKVDDITLVLSRVTTREELNATSTW”, “not soluble”. As for “MAHHHHHHMGIGWEKLDNWEDVPDAGGKYGPLRGPSLVDLQGHVFAIAEAHCKDGGDCSDVGFTGIASKYLDLIGVADPTEILTADASIFGADLLKEGSEVISARNGITRPTTLVLGDSVYVLPGNYSHTGPQVGGTNERGLLLLKGTLTDEGGRKKIKWNETHVVEPQGRGDSRSLTELVGGGGSGAVLRDGTLVFPMQAKDKDGTSVLLSMRFPNSGNKWELSSETPGKGCRDPTLVKWEEKKDDERLFMMAHCAGDYYDVYRSTPHGVNWYTSGQPITRVWGNSHNRKGTVSGVDPPPQSLRKRS”, the “soluble on expression in E. coli” value is recorded as “not soluble”. In the case of “MAHHHHHHMGIVGEYEILETLGTGAFSKVKLVRHLPTNVYFVAKIIQKSNQQVETDVRLEISILRRLRHRNIVQLIEILESSNNYYIILEPVLGGDVCSLVLSQEGGLAEDFVANLFFQLVAGLRACHQNGVAHRDLKPENLLLTGEKVLKISDFGLSRLHKQSNFHAEAEEYAHTLTGTLAYVAPEVLDGNYDAFKADIWSIGCILYVMLTGQFPFGPTTDACELGERIKDGRVCEMPKSVSENARELTMWLLSRDPASRPSLDEVATHAFLRQHVPAKNIMALTRSRQAKILAPDPSEFSSAIPEEKQVANS” it was “soluble”; in that of “MAHHHHHHMGKLQAPCSPTVCGYPLPYPRSLSHNLFNVIQDTRRKGKTNTEQSELKNEGDPLTLSPIVPKVDTSPATESKGRRREEKPLAHEGQLLKHKLDVWRDLFLASAAQQLAASGHPRSRRDDAGNVFYSNISCYLKEGCIVKSEDTDLRTGPRDHLRVQGAYLSHLAPEAFANLHVTLDGNTFVLRNVQRTSPTIKQISEELCEERGIRLLPTAMQKKVAYLVSQVSTSTKERAGTISGKKGLATSKWKHTNSLQTCKHSLNMELPEVTYRSRVLSTIREGAYGSPFQKGCKM”, “not soluble”.

Values taken from the DeepSol protein solubility set.
